Results on eleven molecules are retold here after EP4763862A1.

Substitutions are numbered along the chain they refer to.

The target in assay [1] is Human B7-H3-His protein (human) (UniProt Q5ZPR3). Put plainly: BLI, Fortebio Octet R2, antibody on AMQ sensor, human B7-H3-His in solution. In general terms: In BLI a coated tip is dipped into the sample, and binding shifts an interference pattern.
The target is the same in assay [2]. The experiment in a line: SPR, Biacore 8K, antibody captured by anti-human IgG Fc on CM5, B7-H3 Human-His as analyte, 1:1 model. In general terms: In SPR one partner is held on a chip, and binding of the other changes the refractive index at the surface.

As a reminder, the Kd is a measure of binding affinity in units of concentration. For orientation: koff means the first-order rate constant of dissociation. Higher therefore signals fast dissociation. What is called kon is the second-order rate constant of association. A low value points to slow association.

B1: 28-B1-E8-C11 (antibody, human IgG1, kappa, V domains shown)
VH: EVKLVESGAVLVKPGASVKISCKASGYTLSDFNMDWVKQSQGKSLEWVGDINPNYDTITYNQKFRGKATLTVDRSSNTAYMELRSLTSEDSAVYYCARGELGRYFYVWGAGTTVTVSS
VL: DIQLTQPPASLSASVGETVTITCRASENVYSYLAWYRQKQGRSPQLLVYNAKTLPEGVPSRFSGSGSGTQFSLKINSLQTEDLGDYYCQHHYGTPWTFGGGTKLEIKR
For B1, in assay [1], the Kd is 0.0714 nM, the koff turned out to be 8.49e-05 s⁻¹ and the kon came out at 1.19e+06 M⁻¹ s⁻¹. For the same molecule, in assay [2], the Kd turned out to be 5.91 nM, the koff amounted to 0.000846 s⁻¹ and the kon turned out to be 143000 M⁻¹ s⁻¹.

B2: cAb2-z1-p9 (antibody, human IgG1, kappa, V domains shown)
VH: B1 VH
VL: DIQLTQPPSSLSASVGDRVTITCRASENVYSYLAWYQQKPGRSPQLLVYNAKTLPEGVPSRFSGSGSGTQFTLTISSLQPEDFADYYCSHHYGTPWTFGGGTKVEIKR
In assay [2], B2 displayed a Kd of 4.85 nM, a koff of 0.000802 s⁻¹ and a kon of 165000 M⁻¹ s⁻¹.

B3: 28-F8-C4-A8 (antibody, human IgG1, kappa, V domains shown)
VH: EVQLQQSGAELVQPGASMKLSCKTSGYTFTTYDINWVRQRPEQGLEWIGWIFPGDGTTKYNEKFKGKATLTTDKSSSTAYMHLSRLTSEDSVVYFCARTPWFDYWGQGTTLTVSS
VL: DIVLSQSPAIMSASPGEKVIMTCSASSSISYMYWYQQKPGTSPKRWIYDTSKLASGVPARFSVSGSGTSYSLTISSMEAEDAATYYCHQRSSYPTFGGGTKLELKR
Take B3: in assay [1], the Kd was 0.0434 nM, the koff worked out at 7.56e-05 s⁻¹ and the association rate constant (kon) was 1.74e+06 M⁻¹ s⁻¹.

B4: 19-F1-E9-B11 (antibody, human IgG1, kappa, V domains shown)
VH: EVQLQQSGPSLVKPSQTLSLTCSVTGGSITSFYWNWIRKFPGNKLEYMGYISSSGSTYYNPSLKSRISITRDTSKNQSYLQLNSVTAEDTATYYCARGGVHYGFGDYWGQGTSVTVSS
VL: DIVMTQSAPSVPVTPGESVSISCRSSKSLLHSNGNTYLYWFLQRPGQSPQLLIYRMSNLASGVPDRFSGSGSGTAFTLRISRVEAEDVGVYYCMQHLEYPLTFGAGTKLELKR
B4: in assay [1], the Kd was 2.32 nM, the koff came out at 0.000408 s⁻¹ and the kon is 176000 M⁻¹ s⁻¹.

B5: 16-D10-E1-E1 (antibody, human IgG1, kappa, V domains shown)
VH: EVQLQQSGPELVRPGVSVKISCKGSGYTFTDYAMHWVKQSHAKSLEWIGVINTYSGNTYYSQKFKGKATMTVDKSSSTAYMELARLTSEDSAIYYCARGAGYFPYWYFDVWGAGTTVTVSS
VL: DIQMIQSPSYLAASPGETITINCRASKSISKYLAWYQEKPGKTNKLLIYSGSTLQSGIPSRFSGSGSGTDFTLTISSLEPEDFAMYYCQQHYEYPYTFGGGTKLEIKR
As to B5, in assay [1], the Kd was 0.0877 nM, the koff amounted to 0.000142 s⁻¹ and the kon turned out to be 1.62e+06 M⁻¹ s⁻¹.

B6: cAb1-z0-p7 (antibody, human IgG1, kappa, V domains shown)
VH: EVQLVESGGGLVKPGGSLRLSCAASGFTFSSYGMSWVRQAPGKGLEWVSSISGSGSYTYYPDSLKGRFTISRDNAKNSLYLQMNSLRAEDTAVYYCARQQGYWYFDVWGQGTTVTVSS
VL: DIVMTQTPLSLPVTPGEPASISCRASQSLASSYGKTYLSWYLQKPGQSPQLLIYGISNRFSGVPDRFSGSGSGTDFTLKISRVEAEDVGVYYCLHGTHQPLTFGQGTKLEIKR
In assay [2], B6 registered a Kd of 6.53 nM, a koff of 8.2e-05 s⁻¹ and an on-rate constant (kon) of 12600 M⁻¹ s⁻¹.

B7: cAb1-z5-p7 (antibody, human IgG1, kappa, V domains shown)
VH: B6 VH with G44R, S49A
VL: B6 VL with I2V
With B7, in assay [2], the Kd stood at 3.51 nM, the koff worked out at 7.21e-05 s⁻¹ and the kon came out at 20500 M⁻¹ s⁻¹.

B8: cAb1-z3-p7 (antibody, human IgG1, kappa, V domains shown)
VH: B6 VH with G44R
VL: B6 VL with I2V
In assay [2], B8 gave a Kd of 4.02 nM, a koff of 6.87e-05 s⁻¹ and a kon of 17100 M⁻¹ s⁻¹.

B9: 16-B6-G3-E10 (antibody, human IgG1, kappa, V domains shown)
VH: EVQLQQSGTELVRPGALVKLSCKTSGFNIKDCYMHWVKQRPEQGLEWIGWIDPENGNTIYDPKFQGKATITADTSSYTAYLQLSSLTSEDTAVYYCARSRARGYAMDYWGQGTSVTVTS
VL: DIVMTQSPASLAVSLGQRATISCRASQSVSTSSYSYMHWYRQIPGQPPKLLIKYASNLESGVPARFSGSGSGTDFTLNIHPVEEEDTATYYCQHSWEIPRTFGGGTKLELKR
In assay [1], B9 had a dissociation constant (Kd) of less than 0.001 nM, a koff of less than 1e-07 s⁻¹ and a kon of 1.3e+06 M⁻¹ s⁻¹.

B10: 34-H11-D9-F6 (antibody, human IgG1, kappa, V domains shown)
VH: EVQLQQSGAELVKPRASVRLSCRASGYTFTSYWMHWVKQRPGQGLEWIGMIHPNSGSTNYNEKFKSKATLTVDKSSSTAYMQLSSLTSEDSAVYFCARERFGLLRYFDYWGQGTTLTVSS
VL: DIVMTQSPSSMYASLGERVTITCKASQDINSFLSWFQQKPGKSPKTLLYRANRLMDGVPSRFSGSGSGQDFSLTISSREYEDMGIYYCLQYDEFPFTFGSGTKLELKR
In assay [1], B10 registered a Kd of 0.0522 nM, a koff of 7.52e-05 s⁻¹ and an on-rate constant (kon) of 1.44e+06 M⁻¹ s⁻¹.

B11: cAb2-z5-p6 (antibody, human IgG1, kappa, V domains shown)
VH: QVQLVESGAVVKKPGASVKVSCKASGYTLSDFNMDWVRQAPGKSLEWMGDINPNYDTITYNQKFRGRVTLTVDRSINTAYMELSRLRSDDTAVYYCARGELGRYFYVWGAGTMVTVSS
VL: B2 VL
Take B11: in assay [2], the Kd was 6.6 nM, the koff was found to be 0.00122 s⁻¹ and the kon is 184000 M⁻¹ s⁻¹.
